Results published in the Human Domainome abundance scans (Beltran et al. 2025).

B1: RUN and FYVE domain-containing protein 1, residues 639 to 698; numbered along this chain, Q96T51 (parent)
chain: WLKDDEATHCRQCEKEFSISRRKHHCRNCGHIFCNTCSSNELALPSYPKPVRVCDSCHTL

Variants of: B1
Assay: abundance fitness (aPCA) (normalised: wild type 0, dead -1); higher = more abundant; growth selection in yeast, the domain comes from the species named
Details: Homo sapiens

Abundance fitness of substitutions, site by site:
S39: G 0.185; D 0.128; Y -0.428; L -0.102; E 0.079; W -0.657; I -0.229; H -0.421; F -0.305; C -1.14; T 0.084; N -0.036; R -0.011; A 0.14; Q 0.091; P -0.251
C34: S -0.758; V -0.496; I -0.71; L -0.708; W -0.736; H -0.44; Y -0.682; Q -0.542; G -0.608; T -0.612; F -0.853; K -0.493; P -0.633; A -0.659; N -0.709; D -0.577; R -0.642; M -0.398
T36: V 0.342; G 0.444; D 0.401; S 0.214; A 0.349; N 0.276; L 0.3; H 0.287; P 0.202; Y 0.177; K 0.254; I 0.083; F 0.208; W 0.168; R 0.351; Q 0.403
I32: H -0.24; L -0.056; N -0.05; E 0.074; S 0.013; K 0.134; M 0.161; P 0.109; A -0.1; C -0.105; V 0.04; G 0.195; T 0.007; D -0.079; F 0.042; Q 0.045
C37: L -0.719; G -0.471; A -0.326; T -0.627; S -0.568; Q -0.557; H -0.325; M -0.567; N -0.282; F -0.649; Y -0.615; R -0.553; I -0.825; K -0.658; P -0.537
G30: Y -0.56; V -0.764; T -0.77; W -0.235; P -0.754; S -0.503; R -0.428; Q -0.326
N40: E -0.172; G -0.03; H -0.067; C -0.933; D -0.382; A -0.163; I -0.223
H31: C -0.445; F 0.027; M -0.113; V -0.626; E -0.277; W -0.017; T -0.423; Q -0.019; I -0.113; S -0.225; L -0.012; P -0.711; K -0.143; G 0.08; D -0.126; A -0.204; N -0.237; R -0.142; Y -0.106
S38: M -0.425; K -0.589; R -0.122; I -0.38; H -0.545; D -0.665; C -0.029; T -0.057; Y -0.633; G -0.067; P -0.727; E -0.954; F -0.594; V -0.008; A 0.124; W -0.282; Q -0.432
F33: S -0.47; G -0.537; V 0.076; I -0.171; C 0.059; T -0.238; W -0.455; R -0.6; M -0.378; N -0.488; D -0.573; K -0.602; E -0.576; Y 0.005; H -0.458; Q -0.38; P -0.888
N35: L 0.215; R 0.172; K 0.183; C 0.237; P 0.233; V 0.255; H 0.178; F -0.064; G 0.436; I 0.047; W 0.088; D 0.324; T 0.22; E 0.331; S 0.23; M 0.191; A 0.341; Q 0.173
